The results in this text go back to US20190038660.

The series has as its system ZF6-DBD (Artificial Sequence). In words: cell_activity. Conditions: in vivo porcine retina, AAV8 DBR-R vector 1x10^12 gc, hRHO-s-ΔZF6 promoter, qPCR 2 months after delivery; binding inferred from repression, not measured …. On the technique in general: In qPCR the cycle at which signal appears reflects the starting amount.

Chain of ZF6-DBD (Artificial Sequence) (chain, as listed by the source): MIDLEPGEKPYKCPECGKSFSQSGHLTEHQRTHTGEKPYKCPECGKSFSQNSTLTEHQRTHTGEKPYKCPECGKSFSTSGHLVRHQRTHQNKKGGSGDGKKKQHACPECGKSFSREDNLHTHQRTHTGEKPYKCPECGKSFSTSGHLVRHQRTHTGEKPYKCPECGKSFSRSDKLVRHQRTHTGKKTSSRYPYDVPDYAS

For the substance “porcine Rhodopsin proximal promoter (ZF6 target region)”, the activity (% repression of Rho transcript) amounted to 35.
